Tests used:
Bcl-xL, Q07817 [1] = test: peptide SPOT array, c-Myc-tagged receptor at 1 uM or 100 nM, anti-c-Myc-Cy3
Bfl-1, Q16548 [2] = target: T1, Bfl-1, Q16548; test: as above
T1 chain: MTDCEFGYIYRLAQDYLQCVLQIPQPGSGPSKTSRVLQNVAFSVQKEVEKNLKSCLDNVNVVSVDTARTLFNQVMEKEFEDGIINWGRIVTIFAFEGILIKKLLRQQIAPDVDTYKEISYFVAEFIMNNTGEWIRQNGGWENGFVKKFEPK

Mcl-1, Q07820 [3] = target: T2, Mcl-1, Q07820; test: as above
T2 chain: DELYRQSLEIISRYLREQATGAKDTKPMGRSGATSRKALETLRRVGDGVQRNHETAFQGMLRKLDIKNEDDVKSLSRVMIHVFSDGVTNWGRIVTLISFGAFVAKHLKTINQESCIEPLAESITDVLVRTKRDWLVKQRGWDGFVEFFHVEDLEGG

Bcl-2, P10415 [4] = target: T3, Bcl-2, P10415; test: fluorescence polarisation, direct titration of receptor into 10 nM labelled peptide
T3 chain: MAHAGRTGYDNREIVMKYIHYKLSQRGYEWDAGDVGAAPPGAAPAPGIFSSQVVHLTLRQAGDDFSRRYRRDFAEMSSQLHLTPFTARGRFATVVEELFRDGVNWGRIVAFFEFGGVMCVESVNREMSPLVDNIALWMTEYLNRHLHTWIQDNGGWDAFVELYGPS

Bcl-w, Q92843 [5] = target: T4, Bcl-w, Q92843; test: as above
T4 chain: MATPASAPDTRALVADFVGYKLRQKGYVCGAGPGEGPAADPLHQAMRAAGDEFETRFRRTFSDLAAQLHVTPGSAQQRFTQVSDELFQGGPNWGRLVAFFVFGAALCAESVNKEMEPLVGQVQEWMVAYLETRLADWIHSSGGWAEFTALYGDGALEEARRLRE

Bcl-xL, Q07817 [6] = test: as above
Bfl-1, Q16548 [7] = target: T1, Bfl-1, Q16548; test: as above
Mcl-1, Q07820 [8] = target: T2, Mcl-1, Q07820; test: as above
Bcl-2, P10415 [9] = test: peptide SPOT array, c-Myc-tagged receptor at 1 uM or 100 nM, anti-c-Myc-Cy3
Target sequence in this assay (P10415 1-217): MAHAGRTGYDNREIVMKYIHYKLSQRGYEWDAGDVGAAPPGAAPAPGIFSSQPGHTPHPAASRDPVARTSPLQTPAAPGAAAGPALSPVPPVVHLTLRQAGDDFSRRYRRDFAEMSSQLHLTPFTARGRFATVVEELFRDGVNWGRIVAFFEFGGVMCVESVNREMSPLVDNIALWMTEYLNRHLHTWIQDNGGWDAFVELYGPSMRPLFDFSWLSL

Bcl-w, Q92843 [10] = target: T4, Bcl-w, Q92843; test: as above

Bcl-xL, Q07817, sequence (Q07817 1-209): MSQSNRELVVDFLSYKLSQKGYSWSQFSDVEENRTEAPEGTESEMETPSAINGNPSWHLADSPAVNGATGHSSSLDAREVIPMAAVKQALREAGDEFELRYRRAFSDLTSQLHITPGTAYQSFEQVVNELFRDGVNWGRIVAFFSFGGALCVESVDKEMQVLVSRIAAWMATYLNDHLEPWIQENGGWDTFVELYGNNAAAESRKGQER

Row | Binder | SPOT signal as a fraction of Bim BH3's signal on the same receptor and array (Bcl-xL, Q07817 [1]) | SPOT signal as a fraction of Bim BH3's signal on the same receptor and array (Bfl-1, Q16548 [2]) | SPOT signal as a fraction of Bim BH3's signal on the same receptor and array (Mcl-1, Q07820 [3]) | Kd (Bcl-2, P10415 [4]) [nM] | Kd (Bcl-w, Q92843 [5]) [nM] | Kd (Bcl-xL, Q07817 [6]) [nM] | Kd (Bfl-1, Q16548 [7]) [nM] | Kd (Mcl-1, Q07820 [8]) [nM] | SPOT signal as a fraction of Bim BH3's signal on the same receptor and array (Bcl-2, P10415 [9]) | SPOT signal as a fraction of Bim BH3's signal on the same receptor and array (Bcl-w, Q92843 [10])
1 | TVATRRLSGFLRTLADRLEGTKELLS [MINA] | 0.91 | 0.32 | 0.36 | 266 | 1230 | 1010 | 1130 | > 10000 | – | –
2 | FSKREKLVEILRNIGDERTMVFVETK [DDX4] | 0.14 | 0.1 | 0.35 | > 3040 | > 4350 | > 4000 | > 3370 | 142 | – | –
3 | RVCPYYLSRNLKQQADIIFMPYNYLL [RTEL1] | 2.13 | 0.72 | 1.42 | 342 | > 100000 | 1380 | > 4000 | > 4000 | – | –
4 | AIILCNVCGNLCTDCDRFLHLHRRTK [MYCBP2] | 0.8 | 0.54 | 0.29 | 1180 | 4060 | > 10000 | > 3370 | > 10000 | – | –
5 | FVGYNSTGAELRHWSDMLANPRRPIA [SYT1] | 1.41 | 0.37 | 0.32 | > 100000 | > 4350 | > 6900 | > 3370 | > 4000 | – | –
6 | SKFVILSAHKLVFIGDTLSRQAKAAD [BCAR1] | 0.1 | – | 0.06 | 2990 | 3610 | 2540 | 4680 | 912 | – | –
7 | QRKHEGFERDLAALGDKVNSLGETAE [SPTAN1] | 0.12 | 0.13 | 0.27 | > 3040 | > 4350 | > 7000 | > 3370 | 3850 | – | –
8 | LCQLSCVSKLMRDVCGSLLQSRGMVI [FBXO30] | 0.62 | 0.31 | 0.28 | 2560 | 3280 | > 10000 | > 10000 | > 10000 | – | –
9 | LMARPAVALHFQSIADGFKEAVRYVL [SOS2] | 0.85 | 0.43 | 1.08 | 3290 | 5380 | > 6900 | > 3290 | > 4000 | – | –

The next binders have a lower Kd (Bcl-2, P10415 [4]) than those just listed; values first:

Row | SPOT signal as a fraction of Bim BH3's signal on the same receptor and array (Bcl-xL, Q07817 [1]) | SPOT signal as a fraction of Bim BH3's signal on the same receptor and array (Bfl-1, Q16548 [2]) | SPOT signal as a fraction of Bim BH3's signal on the same receptor and array (Mcl-1, Q07820 [3]) | Kd (Bcl-2, P10415 [4]) [nM] | Kd (Bcl-w, Q92843 [5]) [nM] | Kd (Bcl-xL, Q07817 [6]) [nM] | Kd (Bfl-1, Q16548 [7]) [nM] | Kd (Mcl-1, Q07820 [8]) [nM] | SPOT signal as a fraction of Bim BH3's signal on the same receptor and array (Bcl-2, P10415 [9]) | SPOT signal as a fraction of Bim BH3's signal on the same receptor and array (Bcl-w, Q92843 [10]) | Binder
10 | 2.03 | 0.54 | 0.47 | 130 | 85 | 103 | > 3370 | > 10000 | – | – | PAKKMTLSEIYRWICDNFPYYKNAGI [FOXJ2]
11 | 0.04 | 0.01 | 0.01 | 86 | 249 | 1490 | > 10000 | 2380 | 0.01 | 0.27 | TRELQELARKLQELADASENLLTENT [TXNDC11]
12 | 1.83 | 1.05 | 1.16 | 34 | > 1800 | > 100000 | > 4660 | > 4000 | – | – | FKAWGKFGGAFCRYADEMKEIQERQR [PURB]
13 | 1.91 | 0.75 | 1.67 | 98 | 98 | 39 | > 2280 | > 10000 | – | – | TRRSMVFARHLREVGDEFRSRHLNST [POFUT2]
14 | 1.64 | 1.2 | 1.15 | 28 | 871 | 96 | 278 | 19 | – | – | ISSYMVLAPVFGYLGDRYNRKYLMCG [SPNS1]
15 | 1.21 | 0.38 | 0.45 | 237 | – | 1460 | 182 | 22 | – | – | ACGDSVLARMLRELGDSLRRPQLRLW [SLC19A1]
16 | 1.26 | 0.21 | 0.24 | 6 | 7 | 4 | > 4100 | > 4000 | – | – | VDSIRPKCQELRHLCDQFSAEIARRR [MCF2L]
17 | 0.32 | 0.19 | 0.14 | 49 | 992 | – | 99 | 69 | 0.03 | 0.12 | LRGSGAWGLLLRRVGDDVLVHLLARC [TERT]
18 | 1.38 | 0.29 | 0.22 | 60 | 1120 | 292 | > 3370 | > 4000 | – | – | ADAIRPRCVELRHLCDDFINGNKKKW [MCF2L2]
19 | 1.24 | 0.46 | 1.01 | 16 | 29 | 10 | 3270 | 3810 | – | – | AELRLFLAQRLRWLCDSCPASRATCV [NBEAL2]

— PMC4072508, “Genome-Wide Prediction and Validation of Peptides That Bind Human Prosurvival Bcl-2 Proteins” (PLoS Computational Biology, 2014)
